Data taken from US20210054355A1 (NEW YORK UNIVERSITY, published 2021).

Legend:
[1] = molecular target: T1, αKlotho^ecto/ΔRBA (soluble αKlotho ectodomain lacking L544 to T565 of the KL2 β1α1 loop) (human, UniProt Q9UEF7 34-981); assay: size-exclusion chromatography of FGF23/αKlotho^ecto/ΔRBA mixture
T1 construct: the mature protein is E34 to S959; Expressed and purified like the wild type (pEF1α/myc-His A); also called α-Klotho^ecto/deltaRBA; αKlotho^ecto/ΔRBA mutant
T1 sequence: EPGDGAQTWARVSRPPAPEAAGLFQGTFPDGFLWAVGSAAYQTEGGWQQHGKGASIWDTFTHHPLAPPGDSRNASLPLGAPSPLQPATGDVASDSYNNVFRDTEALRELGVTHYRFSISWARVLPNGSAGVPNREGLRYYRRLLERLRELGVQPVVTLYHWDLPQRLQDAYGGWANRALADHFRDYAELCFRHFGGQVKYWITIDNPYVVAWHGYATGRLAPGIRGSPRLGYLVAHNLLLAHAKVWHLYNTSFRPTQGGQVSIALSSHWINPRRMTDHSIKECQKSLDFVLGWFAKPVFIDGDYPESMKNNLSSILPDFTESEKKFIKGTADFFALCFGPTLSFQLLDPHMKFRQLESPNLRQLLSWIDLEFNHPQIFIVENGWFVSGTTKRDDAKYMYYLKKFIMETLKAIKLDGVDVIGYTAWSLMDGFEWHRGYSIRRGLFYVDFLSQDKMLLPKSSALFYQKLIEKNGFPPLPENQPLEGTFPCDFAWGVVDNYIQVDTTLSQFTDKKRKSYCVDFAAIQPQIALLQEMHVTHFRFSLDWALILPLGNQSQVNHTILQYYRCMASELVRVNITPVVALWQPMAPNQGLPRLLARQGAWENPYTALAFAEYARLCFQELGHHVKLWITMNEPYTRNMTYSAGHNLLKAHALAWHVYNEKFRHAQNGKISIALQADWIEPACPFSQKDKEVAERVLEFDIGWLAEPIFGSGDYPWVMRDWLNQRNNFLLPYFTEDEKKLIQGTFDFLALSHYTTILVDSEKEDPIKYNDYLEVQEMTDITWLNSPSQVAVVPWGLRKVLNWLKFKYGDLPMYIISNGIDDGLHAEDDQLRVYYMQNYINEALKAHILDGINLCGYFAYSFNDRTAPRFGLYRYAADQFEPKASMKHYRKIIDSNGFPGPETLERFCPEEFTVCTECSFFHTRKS

[2] = molecular target: T2, FGFR1c^ecto/ΔSLBS′ (FGFR1c^ecto carrying V221D) (human, UniProt P11362 142-365); assay: SEC-MALS, 1:1:1 ternary complex with FGF23 and αKlotho^ecto
T2 construct: also called FGFR1c^ΔSLBS′
T2 sequence: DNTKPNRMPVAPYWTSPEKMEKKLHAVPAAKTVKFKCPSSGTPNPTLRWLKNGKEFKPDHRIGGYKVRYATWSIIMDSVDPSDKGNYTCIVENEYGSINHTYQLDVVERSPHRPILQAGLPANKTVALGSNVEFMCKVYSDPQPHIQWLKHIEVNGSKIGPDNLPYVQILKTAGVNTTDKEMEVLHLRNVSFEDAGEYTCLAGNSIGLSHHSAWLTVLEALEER
Method: (§1) A Superdex 200 10/300 GL column (GE Healthcare, USA) was placed in-line between the HPLC pump (Waters 1525) and the HPLC UV (Waters 2998 Photodiode Array), laser light scattering, and refractive index detectors. Light scattering and refractive index detectors were calibrated following the manufacturer's guidelines. The refractive index increment (dn/dc) in which n is the refractive index and c is the concentration of the mixture of DDM and CHS in 20 mM Tris-HCl pH 8.0 buffer containing 300 mM NaCl, was determined offline using an Optilab T-rEX refractive index detector. Monomeric bovine serum albumin (#23210, Thermo Scientific, USA) was used as part of routine data quality control.
(§2) 60 ml or more of 25 mM HEPES pH 7.5 buffer containing 150 mM NaCl were passed through the system at a flow rate of 0.5 mL/min to equilibrate the Superdex 200 10/300 GL column and establish stable baselines for light scattering and refractive index detectors. Purified αKlotho^ecto, FGER1c^ecto (wild type or mutant), and FGF23 (wild type or mutant) proteins were mixed at a molar ratio of 1:1:1 and concentrated to 12.5 μM. 50 μl of protein samples with a molar equivalent of a heparin hexasaccharide (#H006, Iduron, Manchester, U.K.) were injected onto the gel filtration column, and the column eluent was continuously monitored for 280 nm absorbance, laser light scattering, and refractive index. In a separate set of experiments, 50 μl of 1:1:1 FGF23-FGFR1c^ecto-αKlotho^ecto ternary complex at 12.5 μM concentration was mixed with heparin hexasaccharide at molar ratios of 1:0.25, 1:0.5, 1:1, or 1:2, and the mixtures were injected onto the gel filtration column. 50 μl of ternary complex without added heparin hexasaccharide were run as a control. In yet another set of experiments, αKlotho^ecto (wild type or mutant) and FGER1c^ecto were mixed at a molar ratio of 1:1, and 50 μl of concentrated protein mixtures were injected onto the gel filtration column. 50 μl of concentrated αKlotho^ecto (wild type or mutant) alone were run as a control in these experiments. […]

[3] = molecular target: T3, FGFR1c^ecto/ΔSLBS (FGFR1c^ecto carrying I203E) (human, UniProt P11362 142-365); assay: as above
T3 construct: also called FGFR1c^ΔSLBS
T3 sequence: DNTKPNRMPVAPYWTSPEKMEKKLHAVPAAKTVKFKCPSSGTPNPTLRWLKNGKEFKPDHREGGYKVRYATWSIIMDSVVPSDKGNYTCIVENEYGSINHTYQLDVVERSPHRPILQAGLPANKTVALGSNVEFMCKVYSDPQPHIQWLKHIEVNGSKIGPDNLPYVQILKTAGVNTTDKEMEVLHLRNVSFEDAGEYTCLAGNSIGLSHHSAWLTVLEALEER
Method: as §1, §2

[4] = molecular target: T4, FGFR1c^ecto/ΔRRBS (FGFR1c^ecto carrying A171D) (human, UniProt P11362 142-365); assay: as above
T4 construct: also called FGFR1^ΔRRBS
T4 sequence: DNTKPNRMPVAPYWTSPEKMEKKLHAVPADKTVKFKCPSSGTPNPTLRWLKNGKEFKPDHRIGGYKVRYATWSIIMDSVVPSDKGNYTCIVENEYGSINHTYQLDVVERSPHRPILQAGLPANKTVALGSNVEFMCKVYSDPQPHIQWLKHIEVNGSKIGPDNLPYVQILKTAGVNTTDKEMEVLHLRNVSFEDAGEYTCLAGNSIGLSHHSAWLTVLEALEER
Method: as §1, §2

Measured: binding result

B1: FGF23^WT (human FGF23 Y25 to S205 with R176Q/R179Q, protease-resistant minimal protein) (ligand)
chain: YPNASPLLGSSWGGLIHLYTATARNSYHLQIHKNGHVDGAPHQTIYSALMIRSEDAGFVVITGVMSRRYLCMDFRGNIFGSHYFDPENCRFQHQTLENGYDVYHSPQYHFLVSLGRAKRAFLPGMNPPPYSQFLSRRNEIPLIHFNTPIPRQHTQSAEDDSERDPLNVLKPRARMTPAPAS
notes: also called wild-type FGF23; minimal FGF23
binds: all assays above
